Variants at the floor of the assay were thinned out.
B1: TPR 5TU (parent)
chain: GGAUCUUCUCGAUCUAACAAAAAAGACAAAUCUGCCACAAAGCUUGAGAGCAUCUUCGGAUGCAGAGGCGGCAGCCUUCGGUGGCGCGAUAGCGCCAACGUUCUCAACUAUGACACGCAAAACGCGUGCUCCGUUGAAUGGAGUUUAUCAUG

Variants of: B1
Test: polymerase ribozyme fitness, log enrichment relative to wild type (log ratio); higher = more active; in vitro selection for triplet polymerase activity
In short: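 Input and output libraries were sequenced on Illumina after a single in vitro selection round, run in triplicate on PCR-built, transcribed mutant libraries of each subunit of a heterodimeric triplet polymerase ribozyme. Selection annealed libraries to a biotinylated primer, the partner subunit and triplets, incubated them frozen at −7 °C, then gel-excised extended constructs for streptavidin-bead capture and RT-PCR. Genotypes with ≥10 input reads and ≥1 read per output were kept. Fitness is the logarithm, taken in base 2, of genotype enrichment divided by wild-type enrichment, using inverse-variance-weighted replicate averages.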

| Variant | polymerase ribozyme fitness (log ratio) |
| --- | --- |
| G84U A120G | -2.16 |
| G84U U101G G126C | -1.67 |
| C85A A98U C108A U134G | ≤ -4.2 |
| G84U C103U A137C | ≤ -4.2 |
| G84A G124U | -0.556 |
| G84A G124A | -0.287 |
| G84U U127A U134G | ≤ -4.2 |
| G84A C95G G141C | -0.311 |
| G84A U145A | 0.189 |
| G84A U145C | -0.153 |
| G84U C116U G143C | -3.37 |
| C85A C95A C125U | -1.39 |
| G84A C95G | -0.784 |
| G84A C95A | -0.531 |
| C85A A98G C116U A120C A147U | 0.389 |
| G84A C114G G124A U134C | -3.53 |
| G84A A98G C105A | -1.05 |
| G84C A115C C116U | -3.98 |
| G84A U135A | -1.69 |
| G84A C96G | -0.627 |
| G84U G86C C93G A98U A142U | -1.78 |
| G84U C87A C116U | ≤ -4.2 |
| G84A G136A U148C | -1.66 |
| G84C G117C | -1.73 |

| Variant | polymerase ribozyme fitness (log ratio) |
| --- | --- |
| G84A A98C C105G U148C | -3.35 |
| G84A U148C | -2.65 |
| G84A U148A | -2.74 |
| C85A C95G A115G | -3.81 |
| G84U A137U C149A | ≤ -4.2 |
| G84A C99U G100U U144A | -4.12 |
| G84U G126A | -1.87 |
| G84U G126U | -1.45 |
| G84U C123A | -1.79 |
| G84U U102C C149G | ≤ -4.2 |
| G84U C87G G88C G143C | ≤ -4.2 |
| G84A G100C | ≤ -4.2 |
| G84C A121U A122C | -1.63 |
| G84A A106G A142C | -0.922 |
| G84A C131G | -3.02 |
| G84A C131A | -2.79 |
| G84U G88A A120C | ≤ -4.2 |
| G84A U109G | -1.95 |
| G84C A142G | -3.03 |
| G84A G88U C96G A113U U144G | ≤ -4.2 |
| G84A G133C G143U | -3.92 |
| G84A C93U | -1.83 |
| G84A U127C U139G A142C | -3.93 |
| C85A A106G | -2.01 |

| Variant | polymerase ribozyme fitness (log ratio) |
| --- | --- |
| G84U C99G U148A | ≤ -4.2 |
| G84U C96A C103U A113U | ≤ -4.2 |
| G84U C95U | -1.23 |
| G84A G143U | -2.51 |
| G84A A89G | -1.6 |
| C85A A142C | -3.23 |
| G84U U134A A142C | ≤ -4.2 |
| G84A A97U | -1.12 |
| G84A A97G | -2.34 |
| G84C A115G | -2.49 |
| G83U U139G | -0.239 |
| G84C C85A G92U C96A A97C C105U | -2.61 |
| G84U G92A | ≤ -4.2 |
| G84A C132G | -3.59 |
| G84A A91U G126U G143U | ≤ -4.2 |
| G84A G133C G141C | -2.83 |
| G84U U101G U134G | -3.87 |
| C85A A122G | -2.54 |
| G84U C129U | -1.42 |
| G84A G94A A98C G124A | -0.811 |
| C85A C87U A119U | ≤ -4.2 |
| G83U U127A | -3.18 |
| G84U A98G | -2.89 |
| G84U C116U G141C | -4.04 |

| Variant | polymerase ribozyme fitness (log ratio) |
| --- | --- |
| C85A C96A | -2.22 |
| G84U A106U | -2.69 |
| G84U A106C | -2.1 |
| G84A A89G G100C A115G C125U | ≤ -4.2 |
| G84U U104G C125A | -3.09 |
| G84U A115U | -3.4 |
| C85A | -1.28 |
| G84A A97G C129A G152A | -4 |
| G84A A147C | -0.0528 |
| C85A A137G | -2.96 |
| G84A A115C | -0.594 |
| G84A A115U | -2.62 |
| G84A G136C | -3.25 |
| G84A G136A | -0.313 |
| G84U C131G | -3.96 |
| G84A C93U C108G A137U | ≤ -4.2 |
| G84A C103G C149U | -3.35 |
| G84A C85U G143A | -1.63 |
| G84U G92C A121U | -2.94 |
| G84U G141A | -1.4 |
| C85A A120U | -1.7 |
| G84C C85G | -4.03 |
| G84U G94A C96A | -3.87 |
| G84A U101A A115U A121G G124A | ≤ -4.2 |

| Variant | polymerase ribozyme fitness (log ratio) |
| --- | --- |
| C85A A107U A147C U151C | ≤ -4.2 |
| G84U A89U U104G U127A | ≤ -4.2 |
| G84U A121C | -1.74 |
| G83U U151A | ≤ -4.2 |
| G84U G136A G141C | -1.29 |
| G84U G117U C123U G141A U146A | ≤ -4.2 |
| C85A C96U C132A | -3.67 |
| G84C C123G U146G | -2.7 |
| G84A C118A | -1.61 |
| C85A C96U A137U U144A | ≤ -4.2 |
| G84U A89G | -3.82 |
| C85A A138G | -3.24 |
| G84U G86A C93U C123U | -1.15 |
| G84U C93G | ≤ -4.2 |
| C85A A147G | -0.743 |
| G84U G100A A106U A137C | ≤ -4.2 |
| G84A G117U U139G U145C | -0.527 |
| G84C G92C A106U C149U | ≤ -4.2 |
| G84A U144A | -1.65 |
| G84A U144G | 0.394 |
| G84A G88U | -3.57 |
| G84A G88A | ≤ -4.2 |
| G84A A142C | -1.65 |
| G84A A142G | -1.82 |

| Variant | polymerase ribozyme fitness (log ratio) |
| --- | --- |
| G84U A91G U144G | -1.53 |
| G84A U134G | -2.31 |
| G84A U134C | -0.573 |
| G84A C105U | 0.191 |
| G84U C99G C103U | ≤ -4.2 |
| G84A A122G G140A G141A | ≤ -4.2 |
| G84A U146A | -0.719 |
| G84U A138U | ≤ -4.2 |
| G84A C123U | -0.156 |
| G84A C123G | -0.679 |
| C85A C96U G128A | -4.19 |
| C85A C93U A119C G126U U127A | ≤ -4.2 |
| C85A A89G U146C | -2.83 |
| G84U U144A | -3.22 |
| G84C C95A A142C | -1.65 |
| G84U U90A C108A | ≤ -4.2 |
| G84U U102G | -4.16 |
| G84A A106U G141U | -0.79 |
| C85A A91G | -3.36 |
| G84U C105A U139C | -4.17 |
| G84U G133C | -3.53 |
| G84U G94U | -2.37 |
| G84U U130A U145C | -4.13 |
| G84A A150G | -0.63 |

| Variant | polymerase ribozyme fitness (log ratio) |
| --- | --- |
| G84A A150C | -3 |
| G83U U146A | -1.19 |
| G84U G117A | -2 |
| G84U A142G | -3.27 |
| C85A A150G | -2.41 |
| C85A A150C | ≤ -4.2 |
| C85A C103G A147U | -2.48 |
| G84U A97U | -1.54 |
| G84A U102A | -1.01 |
| G84U C93A U101C A107G G133U G141C | ≤ -4.2 |
| G84U C87G U90C C96U U145G | ≤ -4.2 |
| G84U U104G | -2.26 |
| G84A A97U A147U | 0.467 |
| C85A C99A | -2.8 |
| C85A C99G | -3.49 |
| G84A C85A G86A G92U U101C | ≤ -4.2 |
| G84A C96A A119U | -1.11 |
| G84A C118U G141A | 0.213 |
| G84C C125G | -1.94 |
| G84A A110U | -3.36 |
| G84A C118A U146C | -1.34 |
| G84A U104C | -0.421 |
| G84A A120C C125U G136A | 0.204 |
